The text below walks through data of patent US20240391992A1 (Eli Lilly, published 2024).

Test [1] concerns the target cynomolgus (cyno) XCL1 (cynomolgus). Nature of the test: flow cytometry, 293T cells with 1 ug/mL chemokine and 100 nM isotype control antibody, anti-human-Fc/PE.
Test [2] has as its target human XCL1 (human) (UniProt P47992). The test is described as above.
Test [3] concerns the target human XCL2 (human) (UniProt Q9UBD3). Described as above.
Test [4] has as its target mouse XCL1 (mouse) (UniProt P47993). Described as above.
Test [5] deals with rat XCL1 (rat) (UniProt P51672). The test is described as above.
Sequence of rat XCL1 (rat) (P51672 22-114 limits assumed): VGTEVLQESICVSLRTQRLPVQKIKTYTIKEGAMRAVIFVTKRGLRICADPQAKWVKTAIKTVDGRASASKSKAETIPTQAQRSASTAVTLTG
Test [6] has as its target T1, human XCR1 (human, UniProt P46094 1-333).
T1 sequence (looked up): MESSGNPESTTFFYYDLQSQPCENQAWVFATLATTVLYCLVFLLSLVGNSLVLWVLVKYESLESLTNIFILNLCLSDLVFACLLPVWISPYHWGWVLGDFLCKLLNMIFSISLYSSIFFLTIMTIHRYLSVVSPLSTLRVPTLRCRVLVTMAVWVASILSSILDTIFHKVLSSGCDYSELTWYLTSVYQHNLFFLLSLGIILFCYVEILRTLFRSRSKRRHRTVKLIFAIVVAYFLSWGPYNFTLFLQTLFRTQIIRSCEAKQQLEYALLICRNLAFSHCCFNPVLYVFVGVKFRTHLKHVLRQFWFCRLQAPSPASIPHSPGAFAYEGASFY
Nature of the test: cell-based or functional assay.

Sequence of mouse XCL1 (mouse) (P47993 22-114 limits assumed): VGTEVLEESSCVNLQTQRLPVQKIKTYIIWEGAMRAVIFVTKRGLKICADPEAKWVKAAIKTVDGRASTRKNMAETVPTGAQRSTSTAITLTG

hIgG1-AAS isotype control antibody: the MFI amounted to 8.4 MFI in test [1]; 7.6 MFI in test [2]; 8.6 MFI in test [3]; 8 MFI in test [4]; 8.2 MFI in test [5].

B1: human XCL1 (ligand)
chain: VGSEVSDKRTCVSLTTQRLPVSRIKTYTITEGSLRAVIFITKRGLKVCADPQATWVRDVVRSMDRKSNTRNNMIQTKPTGTQQSTNTAVTLTG
As for B1, the “GeoMean EC50 (nM), migration of XCR1-expressing Ba/F3 cells (Boyden chamber)” value in test [6] is 858 nM.

B2: Human XCL1 CC3 (ligand)
chain: VGSEVSDKRTCVSLTTQRLPCSRIKTYTITEGSLRAVIFITKRGLKVCADPQATWVRDCVRSMDRKSNTRNNMIQTKPTGTQQSTNTAVTLTG
As to B2, in test [6], the “GeoMean EC50 (nM), migration of XCR1-expressing Ba/F3 cells (Boyden chamber)” value is 115 nM.
